These results are taken from article PMC3561135.

For orientation: stoichiometry N means a count of units in the complex or per binding partner.

Holding throughout (test): SEC; size exclusion chromatography of the purified six-His-tagged recombinant proteins; data not shown; conditions not given
In general terms: Size exclusion chromatography separates by hydrodynamic size, large species first.

The target in assay [1] is Schistosoma mansoni phytochelatin synthase, full length protein (PCS1-591) (Schistosoma mansoni).
Assay [2] addresses Schistosoma mansoni phytochelatin synthase, N-truncated protein (PCS66-591) (Schistosoma mansoni).
For assay [3], the target named is Schistosoma mansoni phytochelatin synthase, N- and C-truncated form (PCS66-300) (Schistosoma mansoni).

For the substance “Schistosoma mansoni phytochelatin synthase, full length protein (PCS1-591) (enzyme)”, the stoichiometry N in assay [1] stood at 2.
Regarding “Schistosoma mansoni phytochelatin synthase, N-truncated protein (PCS66-591) (domain or fragment)”, the stoichiometry N in assay [2] stood at 2.
Consider “Schistosoma mansoni phytochelatin synthase, N- and C-truncated form (PCS66-300) (domain or fragment)”, for which the stoichiometry N in assay [3] worked out at 2.
